Here are results for six molecules from paper PMC9953004, “Scandium-44 Radiolabeled Peptide and Peptidomimetic Conjugates Targeting Neuropilin-1 Co-Receptor as Potential Tools for Cancer Diagnosis and Anti-Angiogenic Therapy” (Biomedicines, 2023).

Primed or numbered codes have the meaning given here. Where no end group is shown, it is not given here. Side-chain parts run from the residue outwards. [ ]: non-standard residue; d: D form. The star is where a group is joined. DOTA″ = DOTA chelator, carrying Sc, O=C([O-])CN1CCN(CC(=O)[O-])CCN(CC(=O)*)CCN(CC(=O)[O-])CC1.[Sc+3]; DOTA′ = DOTA-Sc chelate, O=C([O-])CN1CCN(CC(=O)[O-])CCN(CC(=O)*)CCN(CC(=O)[O-])CC1.[Sc+3]; hArg = N=C(N)NCCCC[C@H](N)C(=O)O; Dab = NCC[C@H](N)C(=O)O; Ahx = NCCCCCC(=O)O

First the molecules themselves.
T1: Recombinant human NRP-1 (neuropilin-1 co-receptor) (human, UniProt O14786 22-856)
T1 construct: neuropilin-1, human, recombinant; It is probably a soluble extracellular construct (surmise); source: bought: BioLegend
T1 sequence (looked up): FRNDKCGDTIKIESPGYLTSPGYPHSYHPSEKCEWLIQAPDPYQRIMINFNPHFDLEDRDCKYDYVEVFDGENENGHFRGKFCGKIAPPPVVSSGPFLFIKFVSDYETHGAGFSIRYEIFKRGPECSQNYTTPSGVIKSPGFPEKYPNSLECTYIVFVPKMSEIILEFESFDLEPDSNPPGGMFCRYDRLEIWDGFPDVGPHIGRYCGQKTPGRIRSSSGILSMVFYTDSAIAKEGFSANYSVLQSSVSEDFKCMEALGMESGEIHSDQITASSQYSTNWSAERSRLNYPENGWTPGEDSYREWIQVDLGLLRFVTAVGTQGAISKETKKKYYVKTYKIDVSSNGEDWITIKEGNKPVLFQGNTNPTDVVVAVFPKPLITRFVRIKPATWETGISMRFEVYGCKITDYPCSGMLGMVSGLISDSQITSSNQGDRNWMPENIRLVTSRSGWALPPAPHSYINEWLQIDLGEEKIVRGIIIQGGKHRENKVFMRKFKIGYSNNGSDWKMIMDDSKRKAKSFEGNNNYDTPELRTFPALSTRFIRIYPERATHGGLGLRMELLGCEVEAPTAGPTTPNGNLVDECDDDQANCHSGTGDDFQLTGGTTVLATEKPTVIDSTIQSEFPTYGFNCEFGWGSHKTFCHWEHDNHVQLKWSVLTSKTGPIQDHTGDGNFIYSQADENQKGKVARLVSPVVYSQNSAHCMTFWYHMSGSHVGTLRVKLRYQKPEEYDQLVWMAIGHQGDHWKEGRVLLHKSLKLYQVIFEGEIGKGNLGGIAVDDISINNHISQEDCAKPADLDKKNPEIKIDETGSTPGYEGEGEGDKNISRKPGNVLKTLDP

B1: Ala-Thr-Trp-Leu-Pro-Pro-Arg (A7R) heptapeptide (peptide)
peptide: ATWLPPR
notes: found by a mutated phage library screening; free C-terminal carboxyl group; also called ^LA7R; source: synthetic peptide (SPPS, Fmoc chemistry)
B2: Sc-DOTA-Ahx-A7R (peptide)
peptide: {DOTA″-Ahx}-ATWLPPR
modifications: also: Sc chelated by DOTA
notes: A7R peptide with linker and chelator on the N-terminus; also called Sc-1; source: synthetic peptide conjugate (SPPS), complexed with ScCl3
B3: Lys(DOTA-Sc)-A7R (peptide)
peptide: H-K(DOTA′)ATWLPPR
modifications: also: DOTA chelating Sc
notes: Lys(DOTA)-Ala-Thr-Trp-Leu-Pro-Pro-Arg; the Lys is a linker before A7R; also called Sc-1bis; source: bought: CASLO ApS (conjugate 1bis), complexed with ScCl3

For this assay, the target named is T1, Recombinant human NRP-1 (neuropilin-1 …). The assay is described as follows: ELISA; competitive; recombinant human NRP-1 coated on a 96-well plate (200 ng/well, overnight, 4 °C), blocked with 0.5% BSA in PBS; 50 µL compound in PBS (100, 50, 25, 12.5, 6.75 µM) plus 50 µL (400 ng/mL) human (bt)-VEGF-A165 in PBS with 4 µg/mL heparin; 2 h at room temperature; streptavidin-HRP, chemiluminescence; IC50 by nonlinear regression, mean ± SD of three experiments. As to conditions: both partners purified.
Broadly, the IC50 is the concentration that inhibits the measured activity by half. Regarding K(hArg)[Dab]([Ahx-DOTA″])PR (also: Sc chelated by DOTA) [Lys(hArg)-Dab(Ahx-DOTA-Sc)-Pro-Arg], the half-inhibitory concentration (IC50) came to 17.9 µM.

As to B1, the IC50 was 17.5 µM.

With [dR][dP][dP][dL][dW][dT][dA] (also called ^DR7A) [retro-inverso isomer of A7R (DArg-DPro-DPro-DLeu-DTrp-DThr-DAla)], the IC50 was > 100 µM.

B2: the IC50 turned out to be 22.5 µM.

B3: the IC50 turned out to be 18.1 µM.

Turning to K(hArg)[Dab]PR [branched peptidomimetic Lys(hArg)-Dab-Pro-Arg (K4R)], the IC50 amounted to 4.83 µM.
